Laboratory results from the supplement of paper PMC10724198.
± gives the standard deviation of the averaged measurements.

system: Saccharomyces cerevisiae; assay: protein stability index of tFT-peptide fusion (C-terminal peptide) (PSI (0-1 scale)); higher = more stable (slower turnover); settings: genetic background: wild type; temperature: 30 C
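Also: PSI is a weighted mean of sequencing reads over stability bins, variants kept only with over 10 reads, mCherry proximal and sfGFP distal, peptide attached via GGGS linker.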

Sequence	protein stability index
PPHPARHRPPAS	0.7321 ± 0.0016
REKRSVTQSTTD	0.796 ± 0.12
VCVAVVGGGCRG	0.5726 ± 0.0032
ECNESSACRNHY	0.65 ± 0.032
GEGSQTGSLIPL	0.71 ± 0.031
CAASLSHKSAPY	0.768 ± 0.1
RLAPWATGVRMW	0.6759 ± 0.0016
VAPPPAPFPPIP	0.627 ± 0.023
FELTLLSPVCFS	0.579 ± 0.0089
TPTFALIHPTET	0.745 ± 0.031
PPLPRPHHPYRR	0.708 ± 0.025
ITGGEKNKEESG	0.698 ± 0.019
VGGWGGVSLGGR	0.721 ± 0.1
GGGGSTIGVYVL	0.686 ± 0.0047
LGGPGAVWGRGR	0.697 ± 0.0084
PPRPLAPSPTLF	0.679 ± 0.021
GVGWGSSWVGYG	0.898 ± 0.092
SLFRVAFLYVQV	0.5406 ± 0.0018
RPLSSSFRTVPS	0.721 ± 0.037
GLRFIAMNIQML	0.658 ± 0.026
VWAGGSLLGCVG	0.686 ± 0.044
LSSGPARVMVVL	0.608 ± 0.04
TSPLPRPPPPSY	0.61 ± 0.043
EGRRCQGGVWRE	0.6818 ± 0.0061
PPPPPCSPPSPP	0.681 ± 0.025

Sequence	protein stability index
ALMITIMNNREF	0.649 ± 0.021
FFRWDSKHDILV	0.732 ± 0.064
KKIRKGIGNKHI	0.651 ± 0.017
ERGEEGGRERRR	0.7 ± 0.0073
GGGRRVRRGGGR	0.678 ± 0.056
HIPPPPRPSAPP	0.69 ± 0.04
PFFLVSPEPLSI	0.666 ± 0.058
ASSHDNPEEVST	0.6298 ± 0.002
SPPHSPPWPLSL	0.691 ± 0.052
SSPARPTRTSPA	0.652 ± 0.061
LADFGREKNSLG	0.703 ± 0.0068
WFRGRIFLFPLV	0.628 ± 0.014
SWPSLDLVSRMQ	0.676 ± 0.038
PPPPPTRLPQNS	0.694 ± 0.062
PRLFLFRSSFPP	0.681 ± 0.048
EEFTSRAFRISW	0.744 ± 0.13
KLKKKKISNVEN	0.612 ± 0.0081
VRNVVYWEFVVE	0.585 ± 0.063
STLVHSDESQLA	0.633 ± 0.092
GREGTEIGKWRE	0.74 ± 0.12
IGRRSRALKITE	0.629 ± 0.03
CGLGVRGRLVLS	0.625 ± 0.026
VFACVHPLASLT	0.681 ± 0.048
VWVFGLGLGRVV	0.691 ± 0.032
LFVEFFACRSFN	0.722 ± 0.011

Sequence	protein stability index
RRPPPPSPPPPP	0.7095 ± 0.0062
EGGRGYGRGRYG	0.685 ± 0.051
QAVVGSYRELGE	0.709 ± 0.038
SSPLPHPSFSPS	0.689 ± 0.017
CLAAPIQDGGLT	0.684 ± 0.086
DVLVHETFLCRL	0.774 ± 0.016
EFERWCGLGRFG	0.744 ± 0.096
LRLAVVSHSCGA	0.639 ± 0.023
ARAGLVGDARGM	0.641 ± 0.026
IAVHLSVSSRSW	0.616 ± 0.035
LSLFSLSPSFSR	0.718 ± 0.013
MAICRVLSQVFL	0.686 ± 0.12
ARRGGRKRPGAV	0.631 ± 0.056
KRKKKRQKNKGK	0.766 ± 0.13
GPGVGYGRWRGG	0.667 ± 0.094
ASTTNLGNPFKA	0.654 ± 0.038
LKRKRKYKKQGV	0.786 ± 0.01
PCYCSAPRRSWA	0.749 ± 0.04
SAVSVATVVWSV	0.705 ± 0.092
YKKLTRKKIQDK	0.781 ± 0.0088
PAPPPPLPLHPR	0.664 ± 0.046
WHDCLYLWADLG	0.693 ± 0.04
SLHVSSLPYALQ	0.662 ± 0.082
CLSPAFGCWWIV	0.582 ± 0.11
VGACGEYGGFFR	0.67 ± 0.035

Sequence	protein stability index
TPMDVEVPIAPI	0.753 ± 0.063
VRGVGGLWGGAV	0.785 ± 0.17
QKTYHATQTRRR	0.6839 ± 0.00099
APPPPLPAPQLR	0.6186 ± 0.0011
VNRYSKETDAVF	0.6719 ± 0.0043
CRLSCRSVDAST	0.662 ± 0.022
RIEKNTKRSEIW	0.665 ± 0.021
QFIFSRGGLPVL	0.7351 ± 0.0015
GGVVGASMSGTP	0.683 ± 0.023
QNLEDDLSIAGS	0.703 ± 0.02
GGVGGPVLGAGG	0.638 ± 0.051
GKERIYVYGWSK	0.686 ± 0.016
PLPRLRRPAPPH	0.667 ± 0.055
PLFLLLPALSIP	0.595 ± 0.029
PLLTFSPLPGLS	0.696 ± 0.034
CSPSPARPPPPR	0.684 ± 0.013
KGSLVLGSKCCR	0.681 ± 0.047
PFPPTPSPAPPL	0.7097 ± 0.0025
RERLSRGGEGFE	0.693 ± 0.021
CSRGVVLFLGFL	0.586 ± 0.016
PHPPLPPPPYLL	0.667 ± 0.016
EKTKEKKAKKYG	0.694 ± 0.027
QLASISPSPNPS	0.692 ± 0.021
GLGLAFRGSFVL	0.69 ± 0.056
SPLPPRSPPRPA	0.699 ± 0.01

Sequence	protein stability index
WTRFSEKIVILR	0.582 ± 0.026
TIQPSVTNPTLN	0.686 ± 0.04
RPASSYPPHSPT	0.767 ± 0.037
DPVLPSVRVSLG	0.715 ± 0.068
TSLSVGVFSSPV	0.647 ± 0.02
DGGRPFQKLYVA	0.663 ± 0.014
VGFGVRTGETVV	0.685 ± 0.048
CGRVWAENGSQG	0.689 ± 0.008
IPKDLSRLELYR	0.62 ± 0.071
DPPPHPPPASPT	0.7 ± 0.1
VGSSLRGWSSRT	0.804 ± 0.045
SPPPTDPPQPPL	0.7035 ± 0.0018
RIAAVRVEGRDD	0.708 ± 0.026
TIVQNLEIVQAR	0.648 ± 0.13
GWCVWGVFSTAL	0.631 ± 0.033
CRRRGPWDRRSR	0.624 ± 0.014
RGVCVGGGCWLV	0.624 ± 0.034
LSLPFLYCFATL	0.518 ± 0.0056
GRTPGNALKRND	0.632 ± 0.03
DGTICAITYLTS	0.6653 ± 0.0017
QTYEGSKGHLRD	0.6625 ± 0.0044
PLRESSTRPSLL	0.684 ± 0.055
CPALPPAPLSPL	0.725 ± 0.018
VRGRGRSWRRVK	0.758 ± 0.18
DETCVGSWNSCG	0.712 ± 0.044

Sequence	protein stability index
SPHSRAPPRFPP	0.726 ± 0.14
SRVVSPLFNLCL	0.692 ± 0.018
GGWLGGLGCFMV	0.708 ± 0.046
RRFAKVALLSLR	0.644 ± 0.12
STLRGTTESERK	0.665 ± 0.057
LYAHVPSYRVSA	0.593 ± 0.058
YRKAAGSQDRAV	0.663 ± 0.018
ISIAATPHVSQP	0.661 ± 0.054
VAIVGCVGKLIR	0.6468 ± 0.0036
GGRLGRGAKGRV	0.669 ± 0.082
AGGIAVYFGEEE	0.746 ± 0.055
KNDRKLIKRILK	0.728 ± 0.093
GVRGGRGQGWYR	0.6373 ± 0.0018
GVLRDRAFLTCA	0.618 ± 0.028
AADNTGRNKGPQ	0.685 ± 0.0095
RLVSPPPLPHRP	0.688 ± 0.0062
QKKKKNRKQKIK	0.696 ± 0.017
VVGAHLWSGFSA	0.711 ± 0.013
PPPAPLPPRSSS	0.638 ± 0.086
LPSFPRISPPSI	0.656 ± 0.016
SFKSCMCLFCGV	0.659 ± 0.034
